Test: soluble on expression in E. coli; label from the status in PepcDB or PDB records

Row | Sequence | soluble on expression in E. coli
1 | MDLNATNYIRGCQSKTYDGKIFPGKGGEKQWICKDTIIHGDTNGACIPPRTQNLCVGELWDKSYGGRSNIKNDTKELLKEKIKNAIHKETELLYEYHDTGTAIISKNDKKGQKGKNDPNGLPKGFCHAVQRSFIDYKNMILGTSVNIYEHIGKLQEDIKKIIEKGTPQQKDKIGGVGSSTENVNAWWKGIEREMWDAVRCAITKINKKNNNSIFNGDECGVSPPTGNDEDQSVSWFKEWGEQFCIERLRYEQNIREACTINGKNEKKCINSKSGQGDKIQGACKRKCEKYKKYISEKKQEWDKQKTKYENKYVGKSASDLLKENYPECISANFDFIFNDNIEYKTYYPYGDYSSICSCEQVK | soluble
2 | MVKSLQLAHQLKDKKILLIGGGEVGLTRLYKLIPTGCKLTLVSPDLHKSIIPKFGKFIQNEDQPDYREDAKRFINPNWDPTKNEIYEYIRSDFKDEYLDLEDENDAWYIIMTCIPDHPESARIYHLCKERFGKQQLVNVADKPDLCDFYFGANLEIGDRLQILISTNGLSPRFGALVRDEIRNLFTQMGDLALEDAVVKLGELRRGIRLLAPDDKDVKYRMDWARRCTDLFGIQHCHNIDVKRLLDLFKVMFQEQNCSLQFPPRERLLSEYCSS | not soluble
3 | MSASSSSALPPLVPALYRWKSTGSSGRQVQRRCVGAEAIVGLEEKNRRALYDLYIATSLRNIAPASTLLTLQNLKEMFELALLDARFEHPECACTVSWDDEVPAIITYESPESNESARDWARGCIHVQPTAKSALDLWSEMEEGRAAANDNTPSKSIELFLLSDVSTDSTPIPQDATVEILFHSNHLFWDGIGCRKFVGDLFRLVGSYIGRSDSREMKKIQWGQEIKNLSPPVVDSLKLDINTLGSEFDDKCTEYTSALVANYKSRGMKFQPGLALPRCVIHKLSADESIDIVKAVKTRLGPGFTISHLTQAAIVLALLDHLKPNDLSDDEVFISPTSVDGRRWLREDIASNFYAMCQTAAVVRIENLKSITVSHKDEKELQVRALESACRNIKKSYRQWLENPFLQALGLRVHNFEASYLHAKPIPFEGEANPLFISDGINERFIPHEIKQTATGENVLSVESIDFVVNQSLPYLAIRLDSWRDASTLNIIYNDANYTEAEVQKYLQSIVEFMLAFRL | soluble
4 | MYSPKRVKLNVTSGMRKRPETGENNDDLYPPTALARNGISPYFIGKPRRKIVVETPSDSAQQQPPFKSRSQQNGLDDELDGIIIDEDEDRTVDVSFSQKQDTRKLKSRPFLGEKSSFKLGEIPKPKEEKRREEPFTMRGFDFGSDDKVTKIRDKICDIVDPTNARRTDPNFIRQMHENTLKGIEVASNPHFKKTRAPTKNRAAIQNTLGTLYPSFTTAAGQDPQNSKFQVPLDRQSSSQSIGSLAGIPPARRAPDIPKRCSNPLIRKAMGMDTEGGGKDEKMSGLRAEPTLKHFDENIISLIESEIMSVNNEIGWADVAGLEGAKKALREIVVLPFKRPDVFTGIRAPPKGVLLFGPPGTGKTMIGRCVASQCKATFFNISASSLTSKWVGEGEKLVRALFSVARLKLPSVIFIDEIDSLLSSRSESEHESSRRIKTEFLVQLDGVNTAPDERLLVLGATNRPQELDEAARRRFQKRLYIALPEPESRTQIVQNLLVGTRHDITNHNLERIRELTDGYSGADMRQLCTEAAMGPIRDIGDDIETIDKDDIRAVTVMDFAEAARVVRPTVDDSQLDAYAAWDKKFGCLPPPSISR | not soluble
5 | SLLGQKSQRYKAEEGLQAQGEAPGLMDVQIPTAEEQKAASSSSTLIMGTLEEVTDSGSPSPPQSPEGASSSLTVTDSTLWSQSDEGSSSNEEEGPSTSPDPAHLESLFREALDEKVAELVRFLLRKYQIKEPVTKAEMLESVIKNYKNHFPDIFSKASECMQVIFGIDVKEVDPAGHSYILVTCLGLSYDGLLGDDQSTPKTGLLIIVLGMILMEGSRAPEEAIWEALSVMGLYDGREHSVYWKLRKLLTQEWVQENYLEYRQAPGSDPVRYEFLWGPRALAETSYVKVLEHVVRVNARVRISYPSLHEEALGEEKGV | soluble
6 | VYRTPRTCSPHFPAGPARVINPGLHELHASAGDERDAPIGINFRSPRMRMAGEFVPDSGACDAAHGGSAAPTRKAGMRIGGAAAGKVE | not soluble
7 | MYATSTQKREWTYTPEKLAAMRLEINIKFRQKYESVMQPDELELFVTPEEELRMQRSIEDAALKFADKFRPHIWPSVKWTALAFFKRAFLVWVPSDTSIRMVMMACFYLAMKIDEFYITIEDFVKNMNVGEPRQNAERILKLEPELMKILDYNLTVHCPYRPYEGHLMDMKTRMLLLNFDLESIRRDSMRFFQNALQTDVLLLYPPSQIALAAINFGLHAQGKSDEILREFLRKLIGIEEDSWAHRDARPEDLEKLEKTVTRVNQIMREVDRNFVAVTEQERENHKSQLARIQALIPALDERRKEQWLAGGGVGLMPGELAEQPVDSDDEIN | not soluble
8 | MSLTIYHPAELPQRQAEKSPNKTIIKYYDRESKQWRNISWSKFAAGVMNAAKALAEIGLESGERIGIYSPNMVHCLYTELGAFAMRGVVVPLYATSSPEQLRFIVEDSSMETLFVGEQFQYNNAYRVQKEYGTLKRIVVFDERVVLNPEDKTSKYFSEFVRLGDSMPNETKVKVSSREAIPSDPALIIYTSGTSGRSKGVLLLHSNLMYQMKVHSEHIPVYGPGELSIAFLPMSHIFEKAWTLFCLTTGTRIAILRDPKKVLEALPQIRPSLMCNVPRFWEKVYQGVNEKMASSPRILKGVYRRAMAVGQRYRLDYWNEGKRAPLLLSMQYAFYNCTIFTLLKRVLGLQRGRYFPTAGAPLSDEINIFLQSVNIPIIVGYGLSETTATVSFYPQRGFKIGSMGKVMPGLDARIDPDNNEILVKGESVMSEYYNLPEETAGAFTPDGYFRTGDAGRMDPDGTLYFLERIKDLYKTANGKYIAPQMIEGMLTKDPIIEQIAVIGDRFKYVSALVYPNWELVRQAAIKRGLEQARTMSVDEMAANPEINRLMMARIEAAQDSLAAYEKVKYITLLAEPFTLEKGELTETMKLKRRVINEHYAEAIEKMYEGHHHHHH | soluble
9 | MSLENSQELTPWQRLTIARMLERPTSLEYIDLIFDSFMEFHGDRAFGDDAAIVGGVAEFNGMPVTVIGQQKGRNTNENIKRNFGMPSPEGYRKALRLMKQAEKFNRPLICFVDTSGAYCGVEAEQRGQGEAIAKNLISMANLKIPVISVVIGEGGSGGALAMAVADEVWMLENSVYSLLSPEGFASILWKDSSRAKEAAEVMKITADDLKGYGIIDKVIKEPDGGAQNDITMVANALRENLKKAIEGLSSTGINELLDNRYNKFRQIGKFIENEDNEGHHHHHH | soluble
10 | MGSDKIHHHHHHMKILVAMSGGVDSTVTAYKLKNLGHEVIGCYMKLHGKPNYHEENIKKVEKVANFLQIPYHILDLQEDFKNKVYMPFVDTYKEGKTPNPCALCNRFIKLGKLLEFAKSLGCEKLATGHYARLENNLIKTAVDESKDQSYFLASADKEALKYLIFPLGEMKKEDVKKFASTIEVLKSFATQKESSEICFVEDTYVQVLDQFMDTKIPGEVLDSSGKVVGKHEGYMHYTIGKRRGFEVRGAHEPHFVLKINPKQNQIIVGTKEELKISEFNLKNINLFIDAKELDCEVKIRYRSKSTPCKVEIYEDKSAKIILKDPVYGLASGQMAVFYDHDKVIASGFIE | not soluble
11 | MENLYFQGLEHHHHHHENSSPYTSEHFHYTVTDIKDLTKLGAIYDKTKKYWVYQGKPVMPDQFTFELLDFLHQLTHLSFSKMKALLERSHSPYYMLNRDRTLKNITETCKACAQVNASKS | soluble
12 | MIPLLAFAAWSGTGKTTLLKKLIPALCARGIRPGLIKHTHHDMDVDKPGKDSYELRKAGAAQTIVASQQRWALMTETPDEEELDLQFLASRMDTSKLDLILVEGFKHEEIAKIVLFRDGAGHRPEELVIDRHVIAVASDVPLNLDVALLDINDVEGLADFVVEWMQKQNG | soluble
13 | MGSDKIHHHHHHMKVFSERADKPHAYLFGEYTNPLGFDPVELALSEDGQAWQSIFDDPNLSNVYLVDFDWLPPVIADTYRTAGTRDGQQLANSRLDQRDIVLKFIAYCRGDADEKLTFQSLSNFLIRRHNYWVAFDNDGSRMYHVREKTITAEYYGDKMMMITVTLNNFTGVAQSIMPSAHINEMPNIGLGLPTDIVNYVFRTSEFDVNNIGELPVDPLVQGDYFDITLTGIGSPTIANTTTGDAITCTKSLTTGDTFKLIGVNPQINGQAAGINTDNGIIRLASGNNHFKITGCQDLNCTVNFYFKYLN | not soluble
